From the supplement of paper PMC7877785
± gives the uncertainty stated by the source.

Experiment: self-splicing fitness, log relative to wild type (ln ratio); higher = more splicing; Tetrahymena group I intron in knt gene, E. coli kanamycin selection, DiMSum; sequences stand for … in CUCUCU…GGAGGGAAAAGUUAUCAGGCAUGCACCUGGUAGCUAGUCUUUAAACCAAUAGAUUGCAUCGGUUUAAAAGGCAAGACCGUCAAAUUGCGGGAAAGGGGUCAACAGCCGUUCAGUACCAAGUCUCAGGGGAAACUUUGAGAUGGCCUUGCAAAGGGUAUGGUAAUAAGCUGACGGACAUGGUCCUAACCACGCAGCCAAGUCCUAAGUCAACAGAUCUUCUGUUGAUAUGGAUGCAGUUCACAGACUAAAUGUCGGUCGGGGAAGAUGUAUUCUUCUCAUAAGAUAUAGUCGGACCUCUCCUUAAUGGGAGCUAGCGGAUGAAGUGAUGCAACACUGGAGCCGCUGGGAACUAAUUUGUAUGCGAAAGUAUAUUGAUUAGUUUUGGAGUACUCGUGGUCG
How it was run: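 Colonies from six replicate transformations of E. coli BL21(DE3) were pooled and amplicon-sequenced on an Illumina HiSeq 2500. The library placed an intron with all eight P1ex-region nucleotides randomised inside the knt kanamycin-resistance gene on pET-22b(+), and cells grew overnight at 37°C or 30°C on LB agar with or without 25 μg/mL kanamycin (plus 100 μg/mL carbenicillin, 50 μM IPTG, 0.2% rhamnose). Fitness is the DiMSum error-weighted combination of wild-type-normalised replicate fold changes, kanamycin versus none.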

Sequence | self-splicing fitness (ln) (30 °C) | self-splicing fitness (ln) (37 °C)
AUCGAGCAAUAUUACGAGUU | -2.66 ± 0.23 | -1.31 ± 0.18
AAGCAGCAAUAUUACGUCAU | -3.1 ± 0.14 | -1.76 ± 0.14
GGUCAGCAAUAUUACGAUGC | -0.354 ± 0.091 | 0.43 ± 0.11
UAGAAGCAAUAUUACGGUAG | -1.88 ± 0.13 | -0.213 ± 0.13
GAAGAGCAAUAUUACGUCUC | -2.37 ± 0.37 | -1.19 ± 0.49
CCCGAGCAAUAUUACGCUUU | – | -1.35 ± 0.19
UCUUAGCAAUAUUACGCGGU | -3.5 ± 0.2 | -2.76 ± 0.26
UACCAGCAAUAUUACGACUC | -2.5 ± 0.18 | -1.65 ± 0.2
AACGAGCAAUAUUACGCGAC | -2.91 ± 0.21 | -2.03 ± 0.27
AGCUAGCAAUAUUACGACAU | -0.509 ± 0.012 | -0.147 ± 0.032
CACAAGCAAUAUUACGCAUG | -3.79 ± 0.18 | -2.52 ± 0.13
UUCAAGCAAUAUUACGUCCU | -1.99 ± 0.12 | -1.04 ± 0.14
GGAUAGCAAUAUUACGCGGU | -2.47 ± 0.33 | -2.6 ± 0.38
UGGUAGCAAUAUUACGAGUA | -0.457 ± 0.19 | -0.963 ± 0.2
CCUGAGCAAUAUUACGUCUA | -2.86 ± 0.31 | -1.69 ± 0.3
UCCCAGCAAUAUUACGAUAU | -3.15 ± 0.18 | -1.74 ± 0.22
UACUAGCAAUAUUACGUACG | -2.76 ± 0.1 | -1.31 ± 0.091
UAACAGCAAUAUUACGGUCU | -1.5 ± 0.068 | -0.783 ± 0.075
UAACAGCAAUAUUACGCAUC | -4.63 ± 0.22 | -2.51 ± 0.17

Sequence | self-splicing fitness (ln) (30 °C) | self-splicing fitness (ln) (37 °C)
CGUCAGCAAUAUUACGCUUA | -2.18 ± 0.23 | -1.14 ± 0.17
ACGUAGCAAUAUUACGAGGC | – | -2.11 ± 0.39
UUUGAGCAAUAUUACGCUAA | -1.08 ± 0.41 | –
ACGCAGCAAUAUUACGUAUC | -2.47 ± 0.2 | -1.18 ± 0.17
AAGCAGCAAUAUUACGUCAC | -4.94 ± 0.42 | -2.25 ± 0.3
GCUAAGCAAUAUUACGGCCA | -0.635 ± 0.2 | -1.58 ± 0.2
UAAUAGCAAUAUUACGGGUA | -1.9 ± 0.17 | -0.433 ± 0.14
AAUUAGCAAUAUUACGUCAA | -2.11 ± 0.17 | -0.791 ± 0.22
UCAGAGCAAUAUUACGUCGA | -1.11 ± 0.072 | -0.44 ± 0.11
CGGUAGCAAUAUUACGAUAG | -0.323 ± 0.11 | 0.279 ± 0.14
GACUAGCAAUAUUACGACUC | -0.54 ± 0.097 | 0.55 ± 0.14
ACAGAGCAAUAUUACGAUAU | -3.55 ± 0.29 | -2.62 ± 0.32
UGUCAGCAAUAUUACGGAUC | -1.89 ± 0.08 | -0.775 ± 0.075
AAGAAGCAAUAUUACGGCUU | -2.42 ± 0.14 | -3.23 ± 0.24
UACCAGCAAUAUUACGCAUA | -0.736 ± 0.072 | 0.0861 ± 0.083
AAGCAGCAAUAUUACGUCUC | -1.28 ± 0.065 | -0.717 ± 0.077
AGUGAGCAAUAUUACGGGCA | -1.22 ± 0.3 | -1.73 ± 0.15
ACUCAGCAAUAUUACGGAAC | -1.64 ± 0.12 | -1.76 ± 0.19
UACAAGCAAUAUUACGAGCG | -0.155 ± 0.074 | -0.0756 ± 0.099
